{"source": "patent US8173604", "key": {"[1]": {"target": "insect cell-produced and purified GST-cyclin A/Cdk2 (kinase reactions, ~3 nM) (UniProt P20248)", "test": "kinase inhibition: purified proteins, ~3 nM GST-cyclin A/Cdk2, Rb-C phosphorylation, non-linear least squares (FIG. 7F)"}, "[2]": {"test_system": "4060 peptide (eighteen-residue peptide, residues 40-57 of human Skp2)"}}, "data": [{"substance": "purified p27 (GST cleaved off by thrombin) (from UniProt P46527 1-198) (other; other documents disagree on this pair)", "values": [{"measurement": "Ki", "setting": "[1]", "result": 2, "unit": "nM"}]}, {"substance": "myc-cyclin A/Cdk2 (293T cell extracts transfected with myc-cyclin A and Cdk2)", "values": [{"measurement": "IP-kinase assay, phosphorylation of Rb-C by cyclin A/Cdk2", "setting": "[2]", "result": "the 4060 peptide did not"}, {"measurement": "IP-kinase assay, phosphorylation of Rb-C by cyclin A/Cdk2", "setting": "Peptide RxL", "result": "the RxL peptide inhibited the kinase activity of cyclin A/Cdk2 towards Rb-C as expected"}]}]}
